Residue numbers refer to the chain shown, from its start. Names and notes keep the numbering of the source. No end group written: not given here.
T1: His6-yNpl4^113–580 (Saccharomyces cerevisiae, UniProt P33755 113-580)
T1 construct: codon-optimized synthetic cDNA; also called WT; WT #1; source: E. coli Rosetta (DE3), purified (Ni-NTA, Resource Q); also in lysate, mixed with cells expressing GST-yUfd1 for co-purification; not shown: His6, N-terminal, kept
T1 sequence (looked up): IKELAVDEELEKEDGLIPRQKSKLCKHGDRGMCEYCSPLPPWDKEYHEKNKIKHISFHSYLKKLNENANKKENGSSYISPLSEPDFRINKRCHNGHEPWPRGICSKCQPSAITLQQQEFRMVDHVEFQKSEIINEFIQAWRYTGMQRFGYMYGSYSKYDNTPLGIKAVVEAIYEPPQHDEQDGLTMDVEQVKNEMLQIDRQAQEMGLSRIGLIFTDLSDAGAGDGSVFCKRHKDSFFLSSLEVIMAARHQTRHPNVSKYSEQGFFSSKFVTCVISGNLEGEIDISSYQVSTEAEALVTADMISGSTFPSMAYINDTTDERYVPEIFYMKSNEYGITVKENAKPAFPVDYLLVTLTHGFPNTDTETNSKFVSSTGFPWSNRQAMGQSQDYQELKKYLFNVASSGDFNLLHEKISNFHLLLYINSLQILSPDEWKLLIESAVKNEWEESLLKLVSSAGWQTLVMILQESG

B1: FlAsH-labeled His6-SUMO-yUfd1^288–305-GWCCPGCC L292A (peptide, UniProt P53044 288-305, looked up)
chain: {His6-SUMO}-EPAKADLPEGQLFFGFPMGWCCPGCC
modifications: cysteine pairing not given here; also: FlAsH label bound to CCPGCC motif
notes: Ufd1 of Saccharomyces cerevisiae (yUfd1), residues 288-305 (NBM); also called yUfd1 L292A; source: E. coli Rosetta (DE3) (pCold-SUMO), purified (Ni-NTA, Resource Q), labeled with FlAsH-EDT2; not shown: His6, N-terminal, kept; SUMO, N-terminal, kept
B2: FlAsH-labeled His6-SUMO-yUfd1^288–305-GWCCPGCC L294A (peptide, UniProt P53044 288-305, looked up)
chain: {His6-SUMO}-EPAKLDAPEGQLFFGFPMGWCCPGCC
modifications: cysteine pairing not given here; also: FlAsH label bound to CCPGCC motif
notes: Ufd1 of Saccharomyces cerevisiae (yUfd1), residues 288-305 (NBM); also called yUfd1 L294A; source: E. coli Rosetta (DE3) (pCold-SUMO), purified (Ni-NTA, Resource Q), labeled with FlAsH-EDT2; not shown: His6, N-terminal, kept; SUMO, N-terminal, kept
B3: FlAsH-labeled His6-SUMO-yUfd1^288–305-GWCCPGCC L299A (peptide, UniProt P53044 288-305, looked up)
chain: {His6-SUMO}-EPAKLDLPEGQAFFGFPMGWCCPGCC
modifications: cysteine pairing not given here; also: FlAsH label bound to CCPGCC motif
notes: Ufd1 of Saccharomyces cerevisiae (yUfd1), residues 288-305 (NBM); also called yUfd1 L299A; source: E. coli Rosetta (DE3) (pCold-SUMO), purified (Ni-NTA, Resource Q), labeled with FlAsH-EDT2; not shown: His6, N-terminal, kept; SUMO, N-terminal, kept
B4: FlAsH-labeled His6-SUMO-yUfd1^288–305-GWCCPGCC M305A (peptide, UniProt P53044 288-305, looked up)
chain: {His6-SUMO}-EPAKLDLPEGQLFFGFPAGWCCPGCC
modifications: cysteine pairing not given here; also: FlAsH label bound to CCPGCC motif
notes: Ufd1 of Saccharomyces cerevisiae (yUfd1), residues 288-305 (NBM); also called yUfd1 M305A; source: E. coli Rosetta (DE3) (pCold-SUMO), purified (Ni-NTA, Resource Q), labeled with FlAsH-EDT2; not shown: His6, N-terminal, kept; SUMO, N-terminal, kept
B5: His6-yNpl4^113–580 T571A (domain or fragment, Saccharomyces cerevisiae, UniProt P33755 113-580, looked up)
chain: T1 sequence (looked up) with T459A
notes: source: E. coli Rosetta (DE3), purified (Ni-NTA, Resource Q); not shown: His6, N-terminal, kept
B6: His6-yNpl4^113–580 M574A (domain or fragment, Saccharomyces cerevisiae, UniProt P33755 113-580, looked up)
chain: T1 sequence (looked up) with M462A
notes: as for B5
B7: His6-yNpl4^113–580 M574Q (domain or fragment, Saccharomyces cerevisiae, UniProt P33755 113-580, looked up)
chain: T1 sequence (looked up) with M462Q
notes: as for B5
B8: His6-yNpl4^113–580 I575A (domain or fragment, Saccharomyces cerevisiae, UniProt P33755 113-580, looked up)
chain: T1 sequence (looked up) with I463A
notes: as for B5
B9: His6-yNpl4^113–580 A494F (domain or fragment, Saccharomyces cerevisiae, UniProt P33755 113-580, looked up)
chain: T1 sequence (looked up) with A382F
notes: as for B5
B10: His6-yNpl4^113–580 S498L (domain or fragment, Saccharomyces cerevisiae, UniProt P33755 113-580, looked up)
chain: T1 sequence (looked up) with S386L
notes: as for B5
B11: His6-yNpl4^113–580 S498R (domain or fragment, Saccharomyces cerevisiae, UniProt P33755 113-580, looked up)
chain: T1 sequence (looked up) with S386R
notes: as for B5
B12: yUfd1–His6-yNpl4^113–580 complex (complex, Saccharomyces cerevisiae)
chain 1: MFSGFSSFGGGNGFVNMPQTFEEFFRCYPIAMMNDRIRKDDANFGGKIFLPPSALSKLSMLNIRYPMLFKLTANETGRVTHGGVLEFIAEEGRVYLPQWMMETLGIQPGSLLQISSTDVPLGQFVKLEPQSVDFLDISDPKAVLENVLRNFSTLTVDDVIEISYNGKTFKIKILEVKPESSSKSICVIETDLVTDFAPPVGYVEPDYKALKAQQDKEKKNSFGKGQVLDPSVLGQGSMSTRIDYAGIANSSRNKLSKFVGQGQNISGKAPKAEPKQDIKDMKITFDGEPAKLDLPEGQLFFGFPMVLPKEDEESAAGSKSSEQNFQGQGISLRKSNKRKTKSDHDSSKSKAPKSPEVIEID
chain 2: T1 sequence (looked up)
notes: Ufd1 of Saccharomyces cerevisiae (yUfd1), full-length gene in pGEX-6P1; also called yUfd1–yNpl4; not shown: GST, N-terminal, cleaved; His6, N-terminal, kept

Biological target: T1, His6-yNpl4^113–580
Experiment: fluorescence polarisation; fluorescence anisotropy; 1 nM FlAsH-labeled His6-SUMO-yUfd1 peptide, His6-yNpl4^113–580 in two-fold dilution series; 25 °C; 50 mM Tris-HCl pH 8.0, 100 mM NaCl, 5 mM β-mercaptoethanol, 0.1 g/L BSA
Settings: both partners purified

| Binder | Kd [µM] |
| --- | --- |
| B1 | 5.29 |
| B2 | 0.527 |
| B3 | 12.7 |
| B4 | 0.261 |

Biological target: T2, M1-Ub4 (UniProt P0CG48 1-76; P0CG48 1-76; P0CG48 1-76; P0CG48 1-76)
T2 construct: ubiquitin (Ub), first unit; ubiquitin (Ub), second unit; ubiquitin (Ub), third unit; ubiquitin (Ub), fourth unit
T2 sequence (P0CG48 1-304, one chain of several): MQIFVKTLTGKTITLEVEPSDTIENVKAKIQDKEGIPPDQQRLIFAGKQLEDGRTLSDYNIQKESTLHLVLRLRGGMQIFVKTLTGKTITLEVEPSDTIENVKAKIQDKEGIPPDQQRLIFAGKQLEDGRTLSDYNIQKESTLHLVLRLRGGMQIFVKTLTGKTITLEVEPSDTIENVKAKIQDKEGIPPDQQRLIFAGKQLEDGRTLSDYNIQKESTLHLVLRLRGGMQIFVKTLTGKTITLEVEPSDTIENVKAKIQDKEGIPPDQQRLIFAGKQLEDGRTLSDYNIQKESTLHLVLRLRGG
Experiment: SPR; Biacore T200, 25 °C; wild-type or mutant His6-yNpl4^113–580, yUfd1–His6-yNpl4^113–580 or His6-hNpl4 immobilized on a CM5 chip by amine coupling; Ub2 or Ub4 in two-fold dilution series injected 60 s at 10 μL per min in 10 mM HEPES-NaOH pH 7.5, 150 mM NaCl, 0.05% Tween-20, 0.5 g/L BSA; equilibrium Kd
Settings: both partners purified

| Binder | Kd [µM] |
| --- | --- |
| B5 | 923 |
| B6 | 291 |
| B7 | 634 |
| B8 | 837 |
| B9 | 84 |
| B10 | 101 |
| B11 | 136 |
| B12 | 151 |

Reference: paper PMC6910952 (Nature Communications, 2019)
